# Assay results published in publication PMC7402034.
# Target: SARS-CoV-2 S protein trimer (with mutations R683A and R685A, His-tag) (SARS-CoV-2) (UniProt P0DTC2)
# Test: ELISA
row,Substance,Kd [nM]
1,Human MGL (Fc-tag) (from UniProt Q8IUN9) (Fc fusion),0.312
2,Human DC-SIGN (Fc-tag) (from UniProt Q9NNX6) (Fc fusion),0.192
3,Human DC-SIGNR (Fc-tag) (from UniProt Q9H2X3) (Fc fusion),0.986
